Measurements reported in patent publication US20250177546A1 (SANYOU BIOPHARMACEUTICALS, published 2025).

What was measured:
[1] = molecular target: T1, human ROR1 on cells (full-length human ROR1 on huROR1-HEK293 cells; human ROR1 on A549 and HT-29 tumor cells) (human, UniProt Q01973 30-937); assay: flow cytometry (FACS) on HT29 (HT-29) tumor cells, anti-human IgG-Fc secondary antibody, MFI
T1 construct: whole, on cells; also called hROR1-HEK293T; A549 tumor cells
Procedure: (§1) The specific method was as follows: A549 cells or HT-29 cells in the logarithmic growth phase were prepared to a single-cell suspension, the density was adjusted to 1×10⁶ cells/mL, 100 µL/well was added to a 96-well round-bottom plate, then centrifuged at 4° C., 300 g, and the supernatant was removed. […] After the incubation, the cell mixture was washed three times and then 100 μL of 1:300 diluted secondary antibody Goat F(ab′)₂ Anti-Human IgG-Fc (abcam, ab98596) was added. The mixture was incubated at 4° C. in the dark for 30 min. After washing three times, the cells were detected by flow cytometry (Beckman, CytoFLEX AOO-1-1102).

[2] = molecular target: T2, huROR1-His (human ROR1 ECD AA30-406 with C-terminal His tag, made in house) (human, UniProt Q01973 30-406); assay: ELISA, huROR1-His coated plate, goat anti-human Fc-HRP, OD450
T2 construct: range 30-406; Expressed in HEK293; also called antigen protein huROR1-His; not shown: C-terminal His tag

[3] = molecular target: T1, human ROR1 on cells (full-length human …); assay: flow cytometry (FACS) on A549 tumor cells, anti-human IgG-Fc secondary antibody, MFI
Procedure: as §1

[4] = molecular target: T2, huROR1-His (human ROR1 ECD AA30-406 …); assay: ELISA, huROR1-His coated plate, goat anti-human Fc-HRP, OD450; remark: listed apart in the source
[5] = molecular target: T2, huROR1-His (human ROR1 ECD AA30-406 …); assay: as above; remark: listed apart in the source
[6] = molecular target: T3, MusROR1-His (mouse ROR1 ECD AA30-406 with C-terminal His tag) (mouse, UniProt Q9Z139 30-406); assay: ELISA, MusROR1-His coated at 2 µg/mL, goat anti-human Fc-HRP, OD450
T3 construct: range 30-406; Expressed in HEK293; also called mouse ROR1 antigen protein; not shown: C-terminal His tag
Procedure: (§2) 96-well ELISA plate was coated with 2 μg/mL MusROR1-His (30 μL/well) at 4° C. overnight. The next day, the plate was washed three times with PBST and then blocked with 5% skim milk for 2 h. […] After washing with PBST for three times, the secondary antibody Goat-anti-human Fc-HRP (abcam, ab97225) was added and incubated for 1 h. After incubation, the plate was washed with PBST for 6 times and TMB (SurModics, TMBS-1000-01) was added for color development. According to the color development results, 2 M HCl was added to terminate the reaction, and the data were read at OD450 using a microplate reader (Molecular Devices, SpecterMax 190).

[7] = molecular target: T4, huROR2-His (human ROR2 ECD AA34-403 with C-terminal His tag) (human, UniProt Q01974 34-403); assay: ELISA, huROR2-His coated at 2 µg/mL, goat anti-human Fc-HRP, OD450
T4 construct: range 34-403; Expressed in HEK293; also called human ROR2 antigen protein; not shown: C-terminal His tag
Procedure: as §2, with “huROR2-His” for “MusROR1-His”, “TMBS-1000-0)” for “TMBS-1000-01)”

[8] = molecular target: T1, human ROR1 on cells (full-length human …); assay: flow cytometry (FACS) on huROR1-HEK293 cells, anti-human IgG-Fc secondary antibody, MFI
Procedure: (§3) In this example, the binding activity of the antibody was evaluated using two types of cells, huROR1-HEK293 cells over-expressing human ROR1 and A549 tumor cells.
as §1, with “huROR1-HEK293” for “A549”, “A549” for “HT-29”, “cells/mL, then” for “cells/mL,”, “μL/well cells were” for “µL/well was”, “plate,” for “plate, then”

[9] = molecular target: T1, human ROR1 on cells (full-length human …); assay: flow cytometry (FACS) on A549 tumor cells, anti-human IgG-Fc secondary antibody, MFI; remark: listed apart in the source
Procedure: as §3
as §1, with “huROR1-HEK293” for “A549”, “A549” for “HT-29”, “cells/mL, then” for “cells/mL,”, “μL/well cells were” for “µL/well was”, “plate,” for “plate, then”

[10] = molecular target: T2, huROR1-His (human ROR1 ECD AA30-406 …); assay: Biacore T200 SPR; huROR1-His amine-coupled (~75 RU), antibody 4 and 20 nM as analyte, 1:1 Langmuir fit
Procedure: Protein coupling: The huROR1-His protein produced in Example 1.2 was diluted to 5.6 μg/mL with NaAc buffer, pH 5.0, the flow rate was set to 10 μL/min, the chip activation time was set to the default value of 420 s with a mixture of 1-ethyl-(3-dimethylaminopropyl)carbodiimide (EDC) and N-hydroxysuccinimide (NHS), and the antigen protein huROR1-His was fixed to a level of about 75 RU using a coupling mode with a preset coupling amount, and the activated groups that were not bound to the test sample were blocked with ethanolamine.
Sample test conditions: PBS buffer (pH 7.4) containing 0.05% Tween-20 was used as the running buffer, and the running buffer was used as the control test sample. A series of antibody concentrations (4 nM, 20 nM) were set. During sample analysis, the flow rate was set to 30 μL/min, the binding time was 120 s, and the dissociation time was 360 s. After the dissociation was completed, 10 mM Gly-HCl (pH 2.0) was used for regeneration for 20 s to completely remove the antibody bound to the ligand.
Parameter fitting: The experiment was run in multiple cycles, with the response signal taking the analysis time as the horizontal axis and the response value as the vertical axis. After double reference subtraction, the obtained data were fitted by BiAcore T200 analysis software. The fitting model adopted was 1:1 Langmuir binding model, and Affinity metrics such as the binding dissociation constant were determined.

[11] = molecular target: T2, huROR1-His (human ROR1 ECD AA30-406 …); assay: ELISA, huROR1-His coated at 2 µg/mL, goat anti-human Fc-HRP, OD450
Procedure: as §2, with “huROR1-His” for “MusROR1-His”

[12] = molecular target: T2, huROR1-His (human ROR1 ECD AA30-406 …); assay: Gator (BLI) Advanced Kinetics; antibody 30 nM, huROR1-His 480-7.5 nM
Procedure: First, Q buffer was prepared with PBS (10 mM pH7.4) (IgG-free, purchased from Jackson ImmunoResearch Lab)+0.02% Tween 20 (purchased from thermo)+0.2% BSA (purchased from source culture), and the stock solution of the test antibody was diluted with the prepared Q buffer to a working solution with a final concentration of 30 nM, the stock solution of the antigen protein huROR1-His was prepared with Q buffer into a working solution with multiple dilutions (480, 240, 120, 60, 30, 15, 7.5 nM), and detection and analysis was then performed with Gator instrument and its accompanying software, selecting the Advanced Kinetics experimental mode is used.

T2 sequence (Q01973 30-406 limits assumed): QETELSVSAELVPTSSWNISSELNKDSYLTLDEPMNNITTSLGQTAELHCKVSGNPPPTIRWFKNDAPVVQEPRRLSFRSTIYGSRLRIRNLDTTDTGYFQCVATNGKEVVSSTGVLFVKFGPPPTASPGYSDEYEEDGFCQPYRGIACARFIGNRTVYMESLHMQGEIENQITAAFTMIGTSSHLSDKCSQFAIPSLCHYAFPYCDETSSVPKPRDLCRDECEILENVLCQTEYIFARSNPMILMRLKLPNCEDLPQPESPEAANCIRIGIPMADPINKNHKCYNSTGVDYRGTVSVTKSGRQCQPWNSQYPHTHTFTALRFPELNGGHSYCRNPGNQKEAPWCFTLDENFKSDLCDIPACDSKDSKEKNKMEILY
T1 sequence (Q01973 30-937): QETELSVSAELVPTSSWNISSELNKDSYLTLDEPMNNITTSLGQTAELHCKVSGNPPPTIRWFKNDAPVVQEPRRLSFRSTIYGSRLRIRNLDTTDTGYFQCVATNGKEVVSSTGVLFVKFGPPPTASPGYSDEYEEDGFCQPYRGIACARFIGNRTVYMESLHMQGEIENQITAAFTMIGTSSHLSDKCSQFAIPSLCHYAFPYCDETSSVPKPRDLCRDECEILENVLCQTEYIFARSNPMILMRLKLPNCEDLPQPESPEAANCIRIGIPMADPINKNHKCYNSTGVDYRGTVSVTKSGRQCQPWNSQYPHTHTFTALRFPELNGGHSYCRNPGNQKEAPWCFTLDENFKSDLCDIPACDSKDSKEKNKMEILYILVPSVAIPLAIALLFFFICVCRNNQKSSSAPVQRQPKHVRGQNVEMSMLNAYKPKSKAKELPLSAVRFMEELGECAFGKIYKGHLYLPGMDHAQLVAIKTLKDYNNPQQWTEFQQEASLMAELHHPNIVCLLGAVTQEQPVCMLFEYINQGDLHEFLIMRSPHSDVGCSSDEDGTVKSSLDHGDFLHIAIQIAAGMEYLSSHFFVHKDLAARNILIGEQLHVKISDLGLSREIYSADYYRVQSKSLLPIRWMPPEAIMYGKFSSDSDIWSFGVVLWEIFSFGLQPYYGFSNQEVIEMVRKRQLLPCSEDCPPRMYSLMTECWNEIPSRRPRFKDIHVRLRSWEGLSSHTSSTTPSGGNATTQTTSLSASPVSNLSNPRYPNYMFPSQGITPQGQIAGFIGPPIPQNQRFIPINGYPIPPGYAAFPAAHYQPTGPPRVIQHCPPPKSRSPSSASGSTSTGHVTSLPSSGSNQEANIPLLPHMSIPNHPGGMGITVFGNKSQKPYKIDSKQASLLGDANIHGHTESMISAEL
T3 sequence (Q9Z139 30-406 limits assumed): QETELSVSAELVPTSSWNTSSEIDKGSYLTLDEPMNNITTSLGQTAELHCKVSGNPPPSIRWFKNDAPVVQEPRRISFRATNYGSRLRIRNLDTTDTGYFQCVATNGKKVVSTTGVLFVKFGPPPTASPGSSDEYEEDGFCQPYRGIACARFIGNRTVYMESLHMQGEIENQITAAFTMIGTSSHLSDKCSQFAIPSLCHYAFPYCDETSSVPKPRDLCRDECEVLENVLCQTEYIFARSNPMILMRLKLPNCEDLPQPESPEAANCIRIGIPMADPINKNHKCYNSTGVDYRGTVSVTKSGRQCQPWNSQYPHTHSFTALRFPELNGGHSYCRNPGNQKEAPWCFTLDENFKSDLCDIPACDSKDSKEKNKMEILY
T4 sequence (Q01974 34-403 limits assumed): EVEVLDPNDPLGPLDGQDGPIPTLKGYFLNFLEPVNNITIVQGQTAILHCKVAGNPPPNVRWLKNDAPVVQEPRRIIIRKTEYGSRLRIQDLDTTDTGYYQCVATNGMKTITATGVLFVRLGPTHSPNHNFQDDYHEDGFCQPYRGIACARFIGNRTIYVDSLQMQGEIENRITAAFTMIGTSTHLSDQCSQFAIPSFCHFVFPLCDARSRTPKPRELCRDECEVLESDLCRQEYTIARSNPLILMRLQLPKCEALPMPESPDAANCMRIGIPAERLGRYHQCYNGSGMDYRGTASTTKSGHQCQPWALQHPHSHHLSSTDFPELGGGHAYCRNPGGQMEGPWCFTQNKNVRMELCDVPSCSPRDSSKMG

B1: B31-H3L3 (antibody, human IgG1, kappa, V domains shown)
VH: EVQLVESGGGLVQPGGSLRLSCAASGFTFSRYAMSWVRQAPGKGLEWVASISRGGSTYYADSVKGRFTISRDNSKNTLYLQMNSLRAEDTAVYYCASYFGNYDAMDYWGQGTTVTVSS
VL: DIQMTQSPSSLSASVGDRVTITCRASQDINNYVSWFQQKPGKAPKSLIYRANRLVSGVPSRFSGSGSGTDFTFTISSLQPEDFATYYCLQFDEFPYTFGGGTKLEIKR
For B1, which “EC50 (read off the curve)” value [1] is on record?
The value was ~20 ng/mL.

What about the EC50 [2] of the same binder?
Its EC50 is 4.6 ng/mL.

What about the “EC50 (read off the curve)” value [3] of the same binder?
Its value is ~20 ng/mL.

B2: B31-H3L2 (antibody, human IgG1, kappa, V domains shown)
VH: EVQLVESGGGLVQPGGSLRLSCAASGFTFSRYAMSWVRQAPGKGLEWVASISRGGSTYYADSVKGRFTISRDNSKNTLYLQMNSLRAEDTAVYYCASYFGNYDAMDYWGQGTTVTVSS
VL: DIQMTQSPSSLSASVGDRVTITCKASQDINNYVSWFQQKPGKAPKSLIYRANRLVDGVPSRFSGSGSGTDYTFTISSLQPEDFATYYCLQFDEFPYTFGGGTKLEIKR
Which EC50 [2] does the source give for B2 here?
Its EC50 is 3.23 ng/mL.

B3: B31-H3L4 (antibody, human IgG1, kappa, V domains shown)
VH: EVQLVESGGGLVQPGGSLRLSCAASGFTFSRYAMSWVRQAPGKGLEWVASISRGGSTYYADSVKGRFTISRDNSKNTLYLQMNSLRAEDTAVYYCASYFGNYDAMDYWGQGTTVTVSS
VL: DIQMTQSPSSLSASVGDRVTITCRASQDINNYLSWFQQKPGKAPKSLIYRANRLQSGVPSRFSGSGSGTDFTLTISSLQPEDFATYYCLQFDEFPYTFGGGTKLEIKR
Which EC50 [2] does the source give for B3 here?
Its EC50 is 5.23 ng/mL.

B4: B31-H4L3 (antibody, human IgG1, kappa, V domains shown)
VH: EVQLVESGGGLVQPGGSLRLSCAASGFTFSRYAMSWVRQAPGKGLEWVSAISRGGSTYYADSVKGRFTISRDNSKNTLYLQMNSLRAEDTAVYYCASYFGNYDAMDYWGQGTTVTVSS
VL: DIQMTQSPSSLSASVGDRVTITCRASQDINNYVSWFQQKPGKAPKSLIYRANRLVSGVPSRFSGSGSGTDFTFTISSLQPEDFATYYCLQFDEFPYTFGGGTKLEIKR
With B4 as the binder, how does the EC50 [4] read?
The EC50 was 5.74 ng/mL.

B5: B31-H4L4 (antibody, human IgG1, kappa, V domains shown)
VH: EVQLVESGGGLVQPGGSLRLSCAASGFTFSRYAMSWVRQAPGKGLEWVSAISRGGSTYYADSVKGRFTISRDNSKNTLYLQMNSLRAEDTAVYYCASYFGNYDAMDYWGQGTTVTVSS
VL: DIQMTQSPSSLSASVGDRVTITCRASQDINNYLSWFQQKPGKAPKSLIYRANRLQSGVPSRFSGSGSGTDFTLTISSLQPEDFATYYCLQFDEFPYTFGGGTKLEIKR
How did the EC50 [4] turn out when B5 was run?
Its EC50 is 17.1 ng/mL.

B6: B31-H4L2 (antibody, human IgG1, kappa, V domains shown)
VH: EVQLVESGGGLVQPGGSLRLSCAASGFTFSRYAMSWVRQAPGKGLEWVSAISRGGSTYYADSVKGRFTISRDNSKNTLYLQMNSLRAEDTAVYYCASYFGNYDAMDYWGQGTTVTVSS
VL: DIQMTQSPSSLSASVGDRVTITCKASQDINNYVSWFQQKPGKAPKSLIYRANRLVDGVPSRFSGSGSGTDYTFTISSLQPEDFATYYCLQFDEFPYTFGGGTKLEIKR
For B6, which EC50 [4] is on record?
The EC50 was 8.12 ng/mL.

B7: B31 (chimeric antibody) (antibody, human IgG1, kappa, V domains shown)
VH: EVMLVESGGGLVKPGGSLKLSCAASGFTFSRYAMSWVRQTPEKRLEWVASISRGGSTYYPDSVKGRFTISRDNARNILYLQMSSLRSEDTAMYYCASYFGNYDAMDYWGQGTSVTVSS
VL: DIQMNQSPSSMYASLGERVTITCKASQDINNYVSWFQQKPGKSPKTLIYRANRLVDGVPSRFSGSGSGQDYSFTISSLEYEDMGIYYCLQFDEFPYTFGGGTKLEIKR
notes: ExpiCHO expression
With B7 as the binder, how does the EC50 [5] read?
Its EC50 is 2.12 ng/mL.

Does B7 bind [6]?
Result: no binding (tested: 1 µg/mL)

And the EC50 [2]?
Its EC50 is 1.92 ng/mL.

Does B7 bind [7]?
Result: no binding (tested: 1 µg/mL)

And the EC50 [4]?
The EC50 was 1.63 ng/mL.

What about the “EC50 (read off the curve)” value [8] of the same binder?
Its value is ~80 ng/mL.

What about the “EC50 (read off the curve)” value [9] of the same binder?
Its value is ~5 ng/mL.

What about the Kd [10] of the same binder?
The Kd was 1.25 nM.

And the koff [10]?
Its koff is 0.000817 s⁻¹.

What about the kon [10] of the same binder?
The kon was 653000 M⁻¹ s⁻¹.

What about the “t 1/2” value [10] of the same binder?
Its value is 14.1 min.

What about the EC50 [11] of the same binder?
The EC50 was 5.49 ng/mL.

What about the Kd [12] of the same binder?
Its Kd is 5.67 nM.

What about the koff [12] of the same binder?
The koff was 0.00217 s⁻¹.

What about the kon [12] of the same binder?
The kon was 383000 M⁻¹ s⁻¹.
